The text below walks through data of the Immune Epitope Database (IEDB).

One test has as its target HLA-B*44:03. In words: IEDB peptide-MHC binding, purified MHC/competitive/radioactivity; filed as Kd, often an IC50 or EC50 that approximates it; ≥ and ≤ were set here for values at or beyond the usual limits of such assays. The conditions noted are these: source organism: Dengue virus 1 Brazil/97-11/1997.
The next test concerns the target HLA-B*07:02. The description is as above.
In another test the target is HLA-B*40:01. The test is described as above.
For test [1], the target named is HLA-A*24:02. In words: IEDB peptide-MHC binding, purified MHC/competitive/fluorescence; ≥ and ≤ were set here for values at or beyond the usual limits of such assays.
Another test has as its target HLA-B*15:01. Description: IEDB peptide-MHC binding, purified MHC/competitive/radioactivity; filed as Kd, often an IC50 or EC50 that approximates it; ≥ and ≤ were set here for values at or beyond the usual limits of such assays.
The next test concerns the target HLA-A*30:02. The test is described as above.
For a further test, the target named is HLA-A*01:01. The description is as above.
Another test deals with HLA-A*02:01. Description: IEDB peptide-MHC binding, purified MHC/competitive/fluorescence; ≥ and ≤ were set here for values at or beyond the usual limits of such assays. The conditions noted are these: source organism: Sudan ebolavirus.
The target of a further test is HLA-B*53:01. In words: IEDB peptide-MHC binding, purified MHC/competitive/radioactivity; filed as Kd, often an IC50 or EC50 that approximates it; ≥ and ≤ were set here for values at or beyond the usual limits of such assays.
The target of test [2] is HLA-A*26:01. Description: IEDB peptide-MHC binding, purified MHC/direct/fluorescence; filed as Kd, often an IC50 or EC50 that approximates it; ≥ and ≤ were set here for values at or beyond the usual limits of such assays. The conditions noted are these: source organism: Bacillus cereus NVH0597-99.
Another test addresses HLA-A*23:01. In words: IEDB peptide-MHC binding, purified MHC/competitive/radioactivity; filed as Kd, often an IC50 or EC50 that approximates it; ≥ and ≤ were set here for values at or beyond the usual limits of such assays.
Test [3] addresses HLA-A*24:02. The description is as above.
The target in a further test is HLA-A*29:02. The test is described as above.
Test [4] deals with HLA-A*26:01. Described as above.
Another test addresses HLA-B*44:02. The test is described as above. The following applies: source organism: Dengue virus 3 Martinique/1243/1999.
The target in a further test is HLA-B*51:01. The description is as above.
Setting [5] is: source organism: Dengue virus 1 Brazil/97-11/1997.
Setting [6] is: source organism: Vaccinia virus WR.
Setting [7] is: source organism: Dengue virus 4 Dominica/814669/1981.
Setting [8] is: source organism: Dengue virus 3 Martinique/1243/1999.
Where [9] appears, read: source organism: Dengue virus 2 Jamaica/1409/1983.
[10] abbreviates: source organism: Sudan ebolavirus.
Setting [11] is: source organism: Dengue virus 2 Peru/IQT2913/1996.
[12] abbreviates: source organism: Dengue virus 4 Philippines/H241/1956.
The mark [13] stands for this setting: source organism: Mammarenavirus whitewaterense.
Where [14] appears, read: source organism: Mammarenavirus brazilense.
Setting [15] is: source organism: Lymphocytic choriomeningitis virus (strain Armstrong).

Some results are limits rather than exact numbers.

Turning to NEVHTWTEQY, the Kd with HLA-B*44:03 came to 137 nM.
For TPEGEVGAIA, the Kd in the test with HLA-B*07:02 (setting [5]) came out at 14700 nM.
As to VERAVLDDGI, the Kd in the test with HLA-B*40:01 (setting [5]) is 1680 nM.
YLLFGIKCI showed an IC50 in the test with HLA-A*24:02 [1] (source organism: Vaccinia virus) of 7150 nM. This lies in the single-digit micromolar range.
Turning to VIIHVIEHL, the Kd with HLA-B*15:01 (setting [6]) turned out to be 1190 nM.
With SIGKMFESTY, the figures for the Kd with HLA-A*30:02 (setting [7]) and with HLA-A*01:01 (setting [7]) were 37.4 nM and 17000 nM, respectively.
Take RQMEGEGVL: the dissociation constant (Kd) is 18.8 nM in the test with HLA-B*15:01 (setting [8]) and 43.5 nM in the test with HLA-B*40:01 (setting [8]).
Consider TPKGTVMDII, for which the dissociation constant Kd with HLA-B*07:02 (source organism: Dengue virus 3 Singapore/8120/1995) is 608 nM.
Take TKKNLTRKI: the 50% inhibitory concentration (IC50) with HLA-A*24:02 [1] (source organism: Zaire ebolavirus) was not below 155000 nM.
Take YSQIGAGVY: the dissociation constant (Kd) was 15.6 nM with HLA-B*15:01 (setting [9]), 2.03 nM with HLA-A*30:02 (setting [9]) and 63.4 nM with HLA-A*01:01 (setting [9]).
As to IAWIPYFGP, the 50% inhibitory concentration (IC50) stood at 55800 nM in the test with HLA-A*24:02 [1] (setting [10]) and 26900 nM in the test with HLA-A*02:01.
SYYATSYLE registered an IC50 with HLA-A*24:02 [1] (setting [10]) of 4360 nM.
In the test with HLA-A*24:02 [1] (setting [6]), LGYCMIRWL showed a half-inhibitory concentration (IC50) not below 78900 nM.
On to QQMDPEHRQL, for which the Kd with HLA-B*15:01 (setting [8]) came to 118 nM.
Turning to IANELNYILW, the dissociation constant (Kd) with HLA-B*53:01 (setting [8]) was 79.9 nM.
With IMILKLLTDF, the Kd with HLA-B*15:01 (source organism: Dengue virus 1 Singapore/S275/1990) worked out at 12.4 nM.
In the case of LANTNFFVF, in the test with HLA-B*15:01 (setting [6]), the Kd was 17 nM.
With RSNAALGAIF, the Kd is 184 nM with HLA-B*07:02 (setting [9]), 41.1 nM with HLA-B*15:01 (setting [9]) and 3420 nM with HLA-A*30:02 (setting [9]).
In the case of TMRHKKATY, the values for the Kd in the test with HLA-B*15:01 (setting [11]) and in the test with HLA-A*30:02 (setting [11]) were 442 nM and not below 76900 nM, respectively.
On to KSKKYEGPF, for which the dissociation constant Kd in the test with HLA-B*15:01 (setting [6]) was 1.86 nM.
Regarding TPEAKNSTFL, in the test with HLA-B*07:02 (setting [12]), the Kd was found to be 1370 nM.
In turn, HTKKEMRSF returned an equilibrium dissociation constant (Kd) in the test with HLA-A*26:01 [2] of 15 nM.
Take YYGLVTEQF: the Kd was determined as 1.47 nM with HLA-A*23:01 (setting [13]), 3.27 nM with HLA-A*24:02 [3] (setting [13]) and 95.5 nM with HLA-A*29:02 (setting [13]).
In turn, AEGVIAFLI displayed a concentration for half-maximal inhibition (IC50) with HLA-A*24:02 [1] (setting [10]) of 440 nM.
As to YLAGAGLLF, the values for the Kd with HLA-B*15:01 (setting [9]), with HLA-A*24:02 [3] (setting [9]) and with HLA-A*26:01 [4] (setting [9]) were 1.86 nM, 28.5 nM and 2130 nM, respectively.
As to FTPEARNSTF, the Kd with HLA-A*24:02 [3] (setting [7]) stood at 4150 nM; with HLA-A*26:01 [4] (setting [7]), 518 nM.
Turning to MGLLCLTLF, the Kd with HLA-A*23:01 (setting [12]) was 451 nM.
As for LPETLETLL, the dissociation constant (Kd) in the test with HLA-B*53:01 (setting [9]) was 918 nM.
As to SPMLYQLLE, the IC50 with HLA-A*24:02 [1] (source organism: Vaccinia virus Copenhagen) is 64600 nM.
For LWEKLCYLI, the dissociation constant Kd turned out to be 265 nM with HLA-A*23:01 (setting [14]), 2880 nM with HLA-A*24:02 [3] (setting [14]) and 4440 nM in the test with HLA-A*29:02 (setting [14]).
As for PKAQREIFS, the IC50 in the test with HLA-A*24:02 [1] (source organism: Variola virus) amounted to 30100 nM.
Regarding QTWMSAEGAW, the Kd in the test with HLA-B*44:02 was 11900 nM.
As for VYFESFVREF, the Kd is 8.89 nM with HLA-A*23:01 (setting [15]), 59.7 nM with HLA-A*24:02 [3] (setting [15]) and 184 nM with HLA-A*29:02 (setting [15]).
In the case of MPVTHSSAAQ, the Kd with HLA-B*07:02 (setting [9]) was not below 20100 nM; in the test with HLA-B*51:01 (setting [9]), not below 69600 nM.
On to FILTAILFF, for which the Kd with HLA-B*15:01 (setting [6]) was 181 nM.
As for HWVPTSRTTW, the equilibrium dissociation constant (Kd) with HLA-A*23:01 (setting [9]) was determined as 734 nM; with HLA-A*24:02 [3] (setting [9]) it was 603 nM.
In the case of KVVQPENLEY, the Kd with HLA-B*15:01 (source organism: Dengue virus 2 16681-PDK53) was determined as 30 nM.
Turning to TMKHKKATY, the results for the Kd with HLA-B*15:01 (setting [9]) and with HLA-A*30:02 (setting [9]) were 83.4 nM and 1200 nM, respectively.
As for KQTGSASSM, the Kd in the test with HLA-B*15:01 (setting [9]) is 10.8 nM.
In the test with HLA-A*24:02 [1] (source organism: Variola virus), ISHRPVVLT returned an IC50 of 1370 nM. This lies in the single-digit micromolar range.
In the case of LPVWLAHKV, the equilibrium dissociation constant (Kd) in the test with HLA-B*51:01 (setting [8]) turned out to be 126 nM; with HLA-B*53:01 (setting [8]) it was 831 nM.
For the sequence YPALMPLY, the Kd with HLA-B*07:02 (source organism: Hepatitis B virus) is not below 10000 nM.
With IPHDLMEFI, the dissociation constant Kd with HLA-B*51:01 (setting [12]) was found to be 20.4 nM; in the test with HLA-B*53:01 (setting [12]), 6.39 nM.
Turning to WYMWLGARFL, the values for the Kd in the test with HLA-A*23:01 (setting [9]) and with HLA-A*24:02 [3] (setting [9]) were 49.1 nM and 6.33 nM, respectively.

Broadly, the Kd is the free concentration of one partner at which half of the binding sites on the other are occupied at equilibrium, for simple one-to-one binding. As usually defined, the IC50 is the point on the concentration scale where inhibition reaches its midpoint.
